B1: GST-S100A6 EF-hand II (48–90) (domain or fragment)
chain: not shown
notes: S100A6, human, EF-hand II, residues 48–90; also called C-terminal EF-hand of S100A6; source: E. coli BL21 (DE3), purified (GST-tag purification kit)
B2: GST-S100A6 EF-hand I (1–47) (domain or fragment)
chain: not shown
notes: S100A6, human, EF-hand I, residues 1–47; also called N-terminal EF-hand of S100A6; source: E. coli BL21 (DE3), purified (GST-tag purification kit)

Target: T1, HA-MDM2 full-length (1–491) (human, UniProt Q00987 1-491)
T1 construct: Cloned into a T7 promotor-HA expression vector; also called HA-tagged full-length MDM2; source: E. coli BL21 (DE3), purified (His-tag purification kit)
Experiment: pull-down; about 100 µg of a mixture of GST, GST-S100A6 or its fragments with HA-MDM2 or its fragments on 100 µL glutathione agarose, overnight at 4 °C; blot with anti-HA
Details: both partners purified

Binder | binding result
B1 | binds
B2 | binds

From paper PMC10204293, “S100A6 inhibits MDM2 to suppress breast cancer growth and enhance sensitivity to chemotherapy” (Breast Cancer Research : BCR, 2023)
